Data on 72 sequences can be found in the supplement of paper PMC10567573.

± gives the standard deviation.

A short description of this series: protein stability index of a GFP-peptide fusion (GPS, HEK-293T) (PSI 1-6); higher = more stable.
The mark [1] stands for this setting: treatment: DMSO, c terminus: a fixed tail appended.
[2] abbreviates: treatment: MLN4924 1 uM, 8 h, c terminus: a fixed tail appended.
[3] abbreviates: treatment: DMSO, c terminus: native.
The mark [4] stands for this setting: treatment: MLN4924 1 uM, 8 h, c terminus: native.
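Further: 24-mer peptide tiles fused after GFP, lentivirally expressed, FACS-sorted into six equal bins by GFP/DsRed ratio, decoded by Illumina sequencing, PSI is the read-weighted mean bin number.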

Turning to MYEEEMEREEITTKKRKLGKNPDV [FAM50A], the protein stability index reads like this: under setting [1], 4.94 ± 0.57; under setting [2], 5.14 ± 0.44. Regarding MYLKQLAEYRKYIHSRKCRCLVM [RHOBTB3], the protein stability index worked out at 1.95 ± 0.5 under setting [3] and 2 ± 0.33 under setting [4].

As for NAKLAADDFRTKYQTEQSLRQLVE [KRT33B], the protein stability index was found to be 3.4 ± 0.26 under setting [1] and 3.48 ± 0.14 under setting [2]. NDINILRVSNPGRLAELLLLETDA [GADD45A]: the protein stability index stood at 2.31 ± 0.19 under setting [1] and 2.5 ± 0.5 under setting [2].

Take NDNKVLRYLAVLESPIPEDKDRRF [EFHC1]: the protein stability index reads like this: under setting [1], 3.51 ± 0.21; under setting [2], 3.6 ± 0.15.

For NEEIRAVGRLKRERSMSENAVRQN [MFF], the protein stability index is 5.15 ± 0.2 under setting [1] and 4.87 ± 0.27 under setting [2]. For the sequence NETGYLSSVECYNLETNEWRYVSS [KLHL14], the protein stability index turned out to be 2.61 ± 0.32 under setting [1] and 2.91 ± 0.57 under setting [2]. Regarding NFQFLPQVNGHPDPFDEIILFSLP [PTPN9], the protein stability index is, setting by setting: under setting [1], 2.4 ± 0.29; under setting [2], 2.37 ± 0.19. On to NGAGVTVLRREISELRTKVQEQQK [FBXO28], for which the protein stability index came to 4.11 ± 0.23 under setting [1] and 4.21 ± 0.13 under setting [2]. The like results for NGIHVCMVFEVLGHHLLKWIIKSN [SRPK2] were, in that order, 3.01 ± 0.14 and 2.96 ± 0.29. In the same order, the values of NGLALGPDLNILEDSAESRPWRAG [PSD2] are 4 ± 0.14 and 4.24 ± 0.38. In the same order, the values of NGSSEKREVRQFQFTAWPDHGVPE [PTPRD] are 4.41 ± 0.14 and 4.43 ± 0.19.

For NGVTQKASAPTYPSLYSSYHQGCL [NANOGP8], the protein stability index runs as follows: under setting [1], 2.75 ± 0.11; under setting [2], 2.93 ± 0.34. In the same order, the values of NIEEIDEIPLVIKYKKAVGLKLKQ [WDR88] are 2.78 ± 0.19 and 2.91 ± 0.28. In the same order, the values of NISHTKEKKKGKAKKKRLTKADIG [WASL] are 4.78 ± 0.23 and 4.81 ± 0.26. The like results for NKALWENNKLKLQQKLVIDTVTEV [CBY2] were, in that order, 3.16 ± 0.35 and 3.29 ± 0.25.

NKLQTLSPSHKGIAAPHAGANVKP [ZC2HC1A]: the protein stability index came out at 4.35 ± 0.16 under setting [1] and 4.457 ± 0.035 under setting [2]. As to NKPAVKLLYNRSNNKYSYTSNSDD [KCTD10], the protein stability index under setting [1] amounted to 4.1 ± 0.1 and the protein stability index under setting [2] was determined as 4.03 ± 0.31. The like results for NLEKQLICPICLEMFTKPVVILPC [TRIM55] were, in that order, 2.41 ± 0.34 and 2.33 ± 0.22. NLLISLTFLTVTDLIGLPWVCFIY [SLC2A12]: the protein stability index runs as follows: under setting [1], 3.36 ± 0.45; under setting [2], 3.19 ± 0.63. The like results for NLSYKQVKTWFQNQRMKSKRWQKN [NANOGP8] were, in that order, 2.54 ± 0.23 and 2.57 ± 0.33. In the same order, the values of NLWYSFQDEEDMFMVVDLLLGGDL [STK32A] are 2.41 ± 0.69 and 2.2 ± 0.39.

In the case of NMERFGEDNLEDDDVEMKNGITQG [CDC14A], the protein stability index by setting is: under setting [1], 5.54 ± 0.19; under setting [2], 5.53 ± 0.23. With NNIKFKKSSILTRAGEQRKRSQSM [CLCN6], the protein stability index was found to be 4.06 ± 0.41 under setting [1] and 4.39 ± 0.1 under setting [2]. In the same order, the values of NNKLKLQQKLVIDTVTEVTARMEM [CBY2] are 2.94 ± 0.53 and 2.89 ± 0.41. As to NNYRLGGNPSTNSRVTASSGITIP [SMARCE1], the protein stability index by setting is: under setting [1], 3.64 ± 0.3; under setting [2], 3.54 ± 0.38. The like results for NPALEGLTQPLQGGTPHCEPCQLP [DNAAF3] were, in that order, 4.89 ± 0.36 and 4.97 ± 0.24.

NPAVRTAAANAAAGAAENAFRAP [SCAMP3]: the protein stability index was determined as 3.08 ± 0.69 under setting [3] and 3.36 ± 0.55 under setting [4]. NPEEYNLDEPNAESDYTYSSSYEQ [SRPK2] came in with a protein stability index under setting [1] of 5.52 ± 0.19 and a protein stability index under setting [2] of 5.46 ± 0.25. For NPRAPVIIYKQTKGGVQNFNKDLV [CEP70], the protein stability index reads like this: under setting [1], 2.52 ± 0.18; under setting [2], 2.46 ± 0.25. As to NPYTELLVLKAHHDIVRFLVQLDD [WDR41], the protein stability index runs as follows: under setting [1], 2.84 ± 0.39; under setting [2], 2.65 ± 0.35. The like results for NQKSDIWALGCVLYELASLKRAFE [NEK8] were, in that order, 2.38 ± 0.72 and 2.41 ± 0.34. Consider NSEDIFLLLCLKVDNHFNLLTTSP [TRIM43], for which the protein stability index came out at 2.58 ± 0.33 under setting [1] and 2.31 ± 0.67 under setting [2].

For the sequence NSNLEEPLNPKPHKKKSPGEKPHR [ZNF449], the protein stability index is, setting by setting: under setting [1], 5.47 ± 0.23; under setting [2], 5.45 ± 0.2. In the same order, the values of NSSTWGSLKQALKGLSVEFALLAD [SNX8] are 2.39 ± 0.55 and 2.45 ± 0.36. In the same order, the values of NVEMDATPGIDLTRVLAEMREQYE [KRT13] are 4.47 ± 0.17 and 4.75 ± 0.32. In the same order, the values of NVHTGEFRNCGACVTLMQGHEGSV [WDR88] are 2.35 ± 0.5 and 2.17 ± 0.2. For the sequence NVLVDPSARIGQNCSIGPNVSLGP [GMPPB], the protein stability index came out at 3.61 ± 0.088 under setting [1] and 3.43 ± 0.25 under setting [2]. In the same order, the values of NVQRLAEPSQMLKHAVVNLINYQD [CTNNB1] are 2.66 ± 0.18 and 2.83 ± 0.12. Take NYYEVGSNRGAYVKLGPALTPHIV [PPEF2]: the protein stability index amounted to 2.19 ± 0.2 under setting [1] and 2.55 ± 0.32 under setting [2]. Take PAMGLQKKLRLNGGRNPYEGRVEV [LOXL2]: the protein stability index under setting [2] was 4.08 ± 0.88.

Take PAQRSHTYTHGLGLHRRPGAGHCS: the protein stability index was 3.52 ± 0.12 under setting [1] and 3.46 ± 0.3 under setting [2].

For PCSFVCWYRPMYKAFRSDSSFNFF [SCAMP3], the protein stability index is, setting by setting: under setting [1], 2.86 ± 0.77; under setting [2], 2.6 ± 0.5. With PCSVIRPILKRLERPQDRDTPVQN [CDC25B], the protein stability index runs as follows: under setting [1], 4.31 ± 0.15; under setting [2], 4.51 ± 0.066.

PCVIESLRTLDKKTFYKTADISQM [TAF7L]: the protein stability index under setting [1] is 2.33 ± 0.34 and the protein stability index under setting [2] amounted to 2.41 ± 0.23. In the same order, the values of PDAIRSRSNTLRERSQVRGSAPPR [PCDHGC5] are 5 ± 0.33 and 4.84 ± 0.23. The like results for PDDYRCSYRIHNGQKLVVPGLLGS [FBXO3] were, in that order, 2.68 ± 0.46 and 2.66 ± 0.34. For PDLRQDFNMMEQKKRVSMILQSPA [ADD1], the protein stability index reads like this: under setting [1], 3.7 ± 0.32; under setting [2], 3.78 ± 0.23. As to PDQLPQNNTLVALPIVAIENILSF [FBXO28], the protein stability index under setting [1] was found to be 2.34 ± 0.24 and the protein stability index under setting [2] is 2.38 ± 0.27. In the same order, the values of PDSVPSLQNMGLLLDKLAKENQDI [PBXIP1] are 4.48 ± 0.18 and 4.42 ± 0.15. In the same order, the values of PDYGVPSSAASLIDFLRVVRNQQS [PTPN9] are 2.84 ± 0.24 and 3.14 ± 0.25.

Regarding PEFVAPEIVNYEPLGLEADMWSIG [DAPK3], the protein stability index under setting [1] amounted to 3.46 ± 0.24 and the protein stability index under setting [2] stood at 3.93 ± 0.7.

With PELTAALRDIRAQYESIAAKNLQE [PRPH], the protein stability index by setting is: under setting [1], 3.52 ± 0.65; under setting [2], 3.8 ± 0.48. Turning to PEVILELGWAQPCDVWSIGCILFE [CLK3], the protein stability index is, setting by setting: under setting [1], 2.63 ± 0.5; under setting [2], 3.55 ± 1. The like results for PEVTSALLESLNQQRLQGQLCDVS [ZBTB22] were, in that order, 3.57 ± 0.23 and 3.65 ± 0.35. The like results for PFKQVAEMLSASRYPTISMVKPLL [ZBED1] were, in that order, 1.97 ± 0.4 and 2.19 ± 0.38.

On to PFTVYQVRWLRPVHRQLGEANEEF [AUP1], for which the protein stability index reads like this: under setting [1], 2.43 ± 0.34; under setting [2], 2.33 ± 0.32. In the same order, the values of PGGVYAGPEPPPVYTNLSSYSPAS [JUNB] are 3.94 ± 0.27 and 4.18 ± 0.41.

Take PGKALGPAATMAVELHYEEGSPRN [C2CD2L]: the protein stability index amounted to 4.81 ± 0.29 under setting [1] and 4.82 ± 0.21 under setting [2]. With PGNKGRGQRGNTESKTDGDDTETV [TCF25], the protein stability index runs as follows: under setting [1], 5.57 ± 0.3; under setting [2], 5.54 ± 0.3. In the same order, the values of PGTGKTSLCKALAQKLTIRLSSRY [TRIP13] are 2.92 ± 0.64 and 2.63 ± 0.65. In the same order, the values of PHVALAVRYNRVGILRRILRTLRD [ANKRD9] are 2.73 ± 0.073 and 2.84 ± 0.3. In the same order, the values of PIAPEVEDPEENPYGPPPDAVQTS [RBBP5] are 5.56 ± 0.17 and 5.54 ± 0.19.

Regarding PIPWFLPESRSLPSSPLRLGSYKA [PPEF2], the protein stability index came out at 2.99 ± 0.16 under setting [1] and 3.11 ± 0.48 under setting [2]. In the same order, the values of PISPSTEVGGSGIGTPPSVLKRQR [MYBL2] are 5.36 ± 0.24 and 4.97 ± 0.36. For the sequence PIVPKIAGDGDTSNFETYPENDWD [PRKX], the protein stability index by setting is: under setting [1], 5.51 ± 0.17; under setting [2], 5.37 ± 0.32. The like results for PKGSLSMGPAPRARPWTRDSASLP [RASAL3] were, in that order, 3.81 ± 0.13 and 4.04 ± 0.4.

Turning to PKPLTRKPILLQRMEGSQEVVNMA [WDFY2], the protein stability index is, setting by setting: under setting [1], 3.66 ± 0.049; under setting [2], 3.65 ± 0.41. The like results for PLDILAQPLEASNPALEGLTQPLQ [DNAAF3] were, in that order, 4.9 ± 0.28 and 4.78 ± 0.16. In the same order, the values of PLIKATVGLIRNLALCPANHAPLR [CTNNB1] are 2.39 ± 0.47 and 2.55 ± 0.43. Regarding PMLWNPSGTPKRYSLELGKAIKQK [C22orf31], the protein stability index by setting is: under setting [1], 3.59 ± 0.23; under setting [2], 3.56 ± 0.14. Turning to PPLPGDMSTGPIAESWCYTQVKVV [SPOPL], the protein stability index came to 2.27 ± 0.15 under setting [1] and 2.38 ± 0.33 under setting [2].
